The values that follow come from patent US20240327847, “COMPOSITIONS AND METHODS FOR RNA AFFINITY” (SANOFI, published 2024).

The target in the data set is streptavidin (UniProt P22629 P22629:25-183). The data set can be described thus: pulldown; recovery similar to tRNA scaffold control, described as non-specific under these conditions. To be noted: tags: immobilised on sepharose beads (streptavidin sepharose); chain copies: 4 (inferred). The procedure: Subsequently, the beads were resuspended in 20 μL of binding buffer with RNasin Ribonuclease Inhibitor (3 μL/100 units) and then incubated on ice for 15 minutes. (2) Preparation of RNA aptamers. 2.5 μg of the RNA aptamers were resuspended in 10 μL binding buffer. Refolding of the RNA aptamers was performed by heating at 56° C. for 5 min, 37° C. for 10 min, followed by a room temperature incubation for 5 minutes to refold aptamer structure. At the end of the RNA aptamer preparation procedure, 2 μL of the random aptamer and the Sim aptamer in a 1:2 mix with binding buffer were collected as a control for total RNA aptamer yield (input control). (3) Incubation conditions. 10 μL of refolded aptamer containing mRNA (2.5 μg) aptamers were added to the beads and incubated at 4° C. for 2 hours on a rotator. Subsequently, beads were washed 3 times with 100 μL of binding buffer and kept on ice for the remainder of the procedure to maintain aptamer secondary structure. (4) Elution of RNA aptamers from beads. Elution was performed with 250 μL phenol-based reagent in the following steps. […] RNA concentration following streptavidin affinity purification was quantified on a Nanodrop using parameters set by the manufacturer's specifications.
Affinity binding of the Sm, tRNA, tRNA-Sm, and 2× tRNA Sm aptamer tags were analyzed. […]

Sequence of streptavidin (P22629 25-183, one chain of several): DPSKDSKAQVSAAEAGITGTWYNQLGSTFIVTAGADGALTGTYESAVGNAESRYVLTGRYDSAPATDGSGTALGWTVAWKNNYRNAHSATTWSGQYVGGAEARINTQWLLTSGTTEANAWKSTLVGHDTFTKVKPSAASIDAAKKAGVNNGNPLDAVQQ

With CGACCAGAAUCAUGCAAGUGCGUAAGAUAGUCGCGGG (ssRNA) [Sm aptamer (pAM20)], the binding result is “no binding”.
